Legend:
[1] = tested on: prostate cancer cell line LnCap; assay: Cancer cell proliferation, Alamar Blue metabolic assay; format: cell-based; details: after 72 hrs, compared with control group without antibody
Text: (§1) The strongest antiproliferative effect was observed using the prostate cancer cell line LnCap, which produces lots of GDF-15.

[2] = target: T1, recombinant mature human GDF-15 protein (Homo sapiens, UniProt Q99988); assay: Surface plasmon resonance binding to immobilized recombinant mature human GDF-15 (insect cell derived); details: GDF-15 derived from insect cell expression; 25° C.; 1:1 Langmuir-type interaction
T1 construct: made in house; host or cells: Baculovirus-transfected HighFive insect cells
T1 sequence (Q99988 with tags, fused parts or gaps): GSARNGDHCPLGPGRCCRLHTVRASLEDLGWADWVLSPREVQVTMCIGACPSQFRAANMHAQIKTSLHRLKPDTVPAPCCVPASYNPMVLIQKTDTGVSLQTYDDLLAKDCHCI
Protocol: Binding of monoclonal anti-human-GDF-15 antibodies according to the invention is generally assessed by employing surface plasmon resonance measurements using a Bio-Rad® ProteOn™ XPR36 system and Bio-Rad® GLC sensor chips as described for murine anti-human GDF-15 mAb-B1-23 in Example 1.
Binding of the monoclonal anti-human-GDF-15 antibody anti-human GDF-15 mAb-B1-23 was measured by employing surface plasmon resonance measurements using a Bio-Rad® ProteOn™ XPR36 system and Bio-Rad® GLC sensor chips:
For preparing the biosensors recombinant mature human GDF-15 protein was immobilized on flow cells 1 and 2. On one flow cell recombinant GDF-15 derived from Baculvirus-transfected insect cells (HighFive insect cells) and on the other recombinant protein derived from expression in E. coli was used. […] The resulting sensogram was analyzed using the software ProteOn Manager version 3.0. […] For the association rate constant a value of 5.4±0.06×10^5 M^−1s^−1 (kon) and for the dissociation rate constant a value of 4.3±0.03×10^−4 s^−1 (koff) could be determined (values are for the interaction of anti-human GDF-15 mAb-B1-23 with GDF-15 derived from insect cell expression).

[3] = Protein A elution at physiological pH and 10 fold concentration via spin columns, turbidity; format: physicochemical; details: TRIS Buffer at physiological pH, from 0.5 mg/ml
Protocol: FIG. 7: Improved solubility of the chimeric and the humanized antibody at physiological pH.
5 mg of antibody (B1-23, chimeric B1-23=“ChimB1-23”, H1L5) were loaded on Proteus™ protein A columns, eluted and collected in a TRIS Buffer at physiological pH. After elution, the quality of the purified antibodies was assessed by Coomassie Brilliant Blue gel analysis. The concentration of the eluted antibodies was measured photometrically as well as in a Bradford assay (Roti-Quant, Carl Roth, Karlsruhe, Germany). […] The antibodies were then 10 fold concentrated via spin columns (Centricon, MWCO 30). […] All concentrated eluates were then centrifuged for 5 min at 13000 rpm in order to precipitate antibody aggregates. The remaining amount of soluble antibodies was finally determined via Bradford assay from the supernatant.

cancer cells = assay: Cytotoxic effects of the antibody (different assays); format: cell-based
Text: as §1

[4] = target: T2, recombinant mature human GDF-15 protein derived from expression in E. coli (Homo sapiens, UniProt Q99988); assay: Surface plasmon resonance binding to recombinant GDF-15 derived from E. coli expression; details: SPR
T2 construct: recombinant mature human GDF-15 protein was immobilized on flow cells 1 and 2; made in house; host or cells: E. coli
T2 sequence (Q99988 195-308): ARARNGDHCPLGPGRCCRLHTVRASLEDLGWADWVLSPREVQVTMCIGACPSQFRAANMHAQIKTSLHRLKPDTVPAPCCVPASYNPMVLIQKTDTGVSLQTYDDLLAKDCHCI
Text: For preparing the biosensors recombinant mature human GDF-15 protein was immobilized on flow cells 1 and 2. On one flow cell recombinant GDF-15 derived from Baculvirus-transfected insect cells (HighFive insect cells) and on the other recombinant protein derived from expression in E. coli was used. The GLC sensor chip was activated using Sulfo-NHS (N-Hydroxysulfosuccinimide) and EDC (1-Ethyl-3-[3-dimethylaminopropyl]carbodiimide hydrochloride) (Bio-Rad® ProteOn™ Amine Coupling Kit) according to the manufacturer's recommendation, the sensor surface was subsequently loaded with the proteins up to a density of about 600RU (1Ru=1 pg mm^−2). The non-reacted coupling groups were then quenched by perfusion with 1M ethanolamine pH 8.5 and the biosensor was equilibrated by perfusing the chip with running buffer ([…], 150 mM NaCl, 3.4 mM EDTA, 0.005% Tween® 20, pH 7.4, referred to as HBS150). […] The resulting sensogram was analyzed using the software ProteOn Manager version 3.0. […] For the association rate constant a value of 5.4±0.06×10^5 M^−1s^−1 (kon) and for the dissociation rate constant a value of 4.3±0.03×10^−4 s^−1 (koff) could be determined (values are for the interaction of anti-human GDF-15 mAb-B1-23 with GDF-15 derived from insect cell expression).

hrGDF-15 = target: T3, hrGDF-15 (Homo sapiens, UniProt Q99988); assay: Colorimetric ELISA binding to coated hrGDF-15; details: serial 1:3 dilution from 333 ng/ml; in comparison to B12
T3 sequence (Q99988 with tags, fused parts or gaps limits assumed): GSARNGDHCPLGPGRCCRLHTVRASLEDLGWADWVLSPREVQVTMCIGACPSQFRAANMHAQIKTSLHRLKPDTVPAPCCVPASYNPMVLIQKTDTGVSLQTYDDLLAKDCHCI
Protocol: Additionally, by using a colorimetric assay, it was confirmed that all anti-GDF-15 antibodies used in the study bound to GDF-15 in a concentration-dependent manner. To determine the binding of B1-23 antibody variants to GDF-15, a […] ELISA experiment was performed. […] Therefore, Maxisorp 96 well plates (Nunc) were coated with hrGDF-15 (25 ng protein per well, 50 μl volume) over night at 4° C. The following day, plates were washed to remove unbound protein (3 times with 150 μl of PBS 0.05% Tween®) and non-specific binding sites were blocked with 150 μl of PBS 1% BSA for 2 hours at room temperature. Again, plates were washed and different variants of B1-23 test antibodies were applied (50 μl volume). To inquire specificity of the antibody binding, endpoint dilution was performed starting from 333 ng/ml and 1:3 serial dilution. As background control, PBS 1% BSA was applied. Following binding for 1 hour at room temperature, wells were washed as described above. As secondary antibody HRP conjugated Anti-human IgG (Life technologies, 1:5000) was applied for 1 hour at room temperature. Wells were washed as described above to remove unbound secondary antibody. […] For analysis, optical density at 450 nm was quantified using the ELISA reader (Tecan Sunrise) and the corresponding Magellan software.

B1: mAb-B1-23: murine IgG2a (kappa) monoclonal anti-human GDF-15 antibody produced by hybridoma cell line B1-23, DSM ACC3142 (antibody, V domains shown)
VH: QVKLQQSGPGILQSSQTLSLTCSFSGFSLSTSGMGVSWIRQPSGKGLEWLAHIYWDDDKRYNPTLKSRLTISKDPSRNQVFLKITSVDTADTATYYCARSSYGAMDYWGQGTSVTVSS
VL: DIVLTQSPKFMSTSVGDRVSVTCKASQNVGTNVAWFLQKPGQSPKALIYSASYRYSGVPDRFTGSGSGTDFTLTISNVQSEDLAEYFCQQYNNFPYTFGGGTKLEIKRTVA
decrease of proliferation [1]: 30%
association rate constant (kon) [2]: 5.4±0.06×10^5 M^−1s^−1
dissociation rate constant (koff) [2]: 4.3±0.03×10^−4 s^−1
aggregation after 10 fold concentration [3]: presence of precipitates
cytotoxic effects of the antibody (cancer cells): excluded
deviation of rate constants, GDF-15 from insect cells vs E. coli [4]: about 45%
binding to GDF-15 in ELISA (hrGDF-15): clearly concentration-dependent binding
